Reference: PMC4937415, “Peroxiredoxin 1 interacts with and blocks the redox factor APE1 from activating interleukin-8 expression” (Scientific Reports, 2016)

Target: the molecule itself
Experiment: SEC; as a6, but HeLa cells treated with 20 μM E3330 for 4 h; fractions 23 to 28 probed with anti-PRDX1

B1: Peroxiredoxin 1 (PRDX1) (natural protein, human (endogenous in HeLaS and HeLa), UniProt Q06830 1-199, looked up)
chain: MSSGNAKIGHPAPNFKATAVMPDGQFKDISLSDYKGKYVVFFFYPLDFTFVCPTEIIAFSDRAEEFKKLNCQVIGASVDSHFCHLAWVNTPKKQGGLGPMNIPLVSDPKRTIAQDYGVLKADEGISFRGLFIIDDKGILRQITVNDLPVGRSVDETLRLVQAFQFTDKHGEVCPAGWKPGSDTIKPDVQKSKEYFSKQK
notes: endogenous PRDX1 of HeLaS and HeLa cells; monomer 22 kDa, dimeric form 44 kDa on blots; source: endogenous, HeLaS nuclear, cytosolic and total extracts; endogenous, HeLa nuclear extract
Question: For B1, which “stoichiometry N” value is on record?
Answer: Its value is 2.
